The record followed here is publication PMC4239642, “trans-Acting Arginine Residues in the AAA+ Chaperone ClpB Allosterically Regulate the Activity through Inter- and Intradomain Communication” (The Journal of Biological Chemistry, 2014).

In assay [1] the target is cross-linked NBD1-M dimer with Walker B mutation E271Q in the cross-linked interface (Thermus thermophilus) (UniProt Q9RA63). Briefly: SEC-MALS; Superdex 200 10/300 GL with multiangle static light scattering (SLS), buffer A (50 mM Tris/HCl pH 7.5, 50 mM KCl, 5 mM MgCl2, 2 mM EDTA); running buffer nucleotide-free or with 2 mM ADP or 2 mM ATP; 40 μl of 100 μM injected, about 2 μM at the detector; self-association induced by nucleotide. As to conditions: scale: NBD1-M subunits.

The target in assay [2] is cross-linked NBD1-M dimer with Walker B mutation E271Q in the free interface (Thermus thermophilus) (UniProt Q9RA63). The description is as above. Conditions: scale: NBD1-M subunits.

What is called stoichiometry N is the number of molecules, sites or subunits per partner or assembly. For the substance “cross-linked NBD1-M dimer with Walker B mutation E271Q in the cross-linked interface (from UniProt Q9RA63 141-534; Q9RA63 141-534) (complex)”, in assay [1], the stoichiometry N stood at 4.

Regarding “cross-linked NBD1-M dimer with Walker B mutation E271Q in the free interface (from UniProt Q9RA63 141-534; Q9RA63 141-534) (complex)”, the stoichiometry N in assay [2] was 4.
